Assays:
[1] = target: T1, human wildtype FLT3 expressed on Ba/F3 cells (human, UniProt P36888 27-993); experiment: flow cytometry, cell surface binding to Ba/F3 cells expressing human FLT3 (results of FIG. 14 summarized)
T1 construct: also called hFLT3 wt; Ba/F3-FLT3
T1 sequence: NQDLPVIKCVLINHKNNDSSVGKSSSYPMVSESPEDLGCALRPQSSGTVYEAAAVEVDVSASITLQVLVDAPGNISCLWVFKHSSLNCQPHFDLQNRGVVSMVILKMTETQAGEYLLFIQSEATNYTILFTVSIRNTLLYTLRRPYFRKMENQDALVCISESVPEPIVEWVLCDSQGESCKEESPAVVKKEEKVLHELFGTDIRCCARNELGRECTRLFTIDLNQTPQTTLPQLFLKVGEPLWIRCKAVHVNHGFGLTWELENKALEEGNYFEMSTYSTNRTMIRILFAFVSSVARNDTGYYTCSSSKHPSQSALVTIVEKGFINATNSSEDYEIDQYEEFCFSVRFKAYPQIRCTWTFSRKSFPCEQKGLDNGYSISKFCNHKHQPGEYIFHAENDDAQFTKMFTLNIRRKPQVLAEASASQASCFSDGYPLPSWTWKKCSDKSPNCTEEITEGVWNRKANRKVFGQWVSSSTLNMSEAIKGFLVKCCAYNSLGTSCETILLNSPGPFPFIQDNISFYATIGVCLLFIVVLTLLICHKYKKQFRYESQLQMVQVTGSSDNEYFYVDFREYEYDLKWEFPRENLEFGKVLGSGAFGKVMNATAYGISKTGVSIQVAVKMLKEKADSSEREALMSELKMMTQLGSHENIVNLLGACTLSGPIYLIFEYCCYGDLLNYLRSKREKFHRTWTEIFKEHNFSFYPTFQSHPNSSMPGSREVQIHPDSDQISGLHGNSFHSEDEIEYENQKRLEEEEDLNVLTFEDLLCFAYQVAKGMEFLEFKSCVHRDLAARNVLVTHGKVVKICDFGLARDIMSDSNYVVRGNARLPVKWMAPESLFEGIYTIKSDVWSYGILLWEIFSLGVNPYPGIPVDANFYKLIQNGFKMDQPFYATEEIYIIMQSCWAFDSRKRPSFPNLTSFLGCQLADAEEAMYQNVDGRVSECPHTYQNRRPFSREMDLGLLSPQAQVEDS

c-KIT on Ba/F3 cells = target: T2, c-KIT on Ba/F3 cells (UniProt P10721 26-976, limits assumed); experiment: flow cytometry, cell surface binding to Ba/F3 pMIY cells expressing c-KIT, MFI ratio normalized to IgG1, mean ± s.d. of n=3
T2 construct: whole, on cells

[2] = target: T3, murine FLT3 expressed on Ba/F3 cells (mouse, UniProt Q00342 28-1000); experiment: flow cytometry, cell surface binding to Ba/F3 pMIY cells expressing mFLT3wt, MFI ratio normalized to IgG1, mean ± s.d. of n=3
T3 construct: whole, on cells; also called mFLT3 wt; mFLT3
T3 sequence (looked up): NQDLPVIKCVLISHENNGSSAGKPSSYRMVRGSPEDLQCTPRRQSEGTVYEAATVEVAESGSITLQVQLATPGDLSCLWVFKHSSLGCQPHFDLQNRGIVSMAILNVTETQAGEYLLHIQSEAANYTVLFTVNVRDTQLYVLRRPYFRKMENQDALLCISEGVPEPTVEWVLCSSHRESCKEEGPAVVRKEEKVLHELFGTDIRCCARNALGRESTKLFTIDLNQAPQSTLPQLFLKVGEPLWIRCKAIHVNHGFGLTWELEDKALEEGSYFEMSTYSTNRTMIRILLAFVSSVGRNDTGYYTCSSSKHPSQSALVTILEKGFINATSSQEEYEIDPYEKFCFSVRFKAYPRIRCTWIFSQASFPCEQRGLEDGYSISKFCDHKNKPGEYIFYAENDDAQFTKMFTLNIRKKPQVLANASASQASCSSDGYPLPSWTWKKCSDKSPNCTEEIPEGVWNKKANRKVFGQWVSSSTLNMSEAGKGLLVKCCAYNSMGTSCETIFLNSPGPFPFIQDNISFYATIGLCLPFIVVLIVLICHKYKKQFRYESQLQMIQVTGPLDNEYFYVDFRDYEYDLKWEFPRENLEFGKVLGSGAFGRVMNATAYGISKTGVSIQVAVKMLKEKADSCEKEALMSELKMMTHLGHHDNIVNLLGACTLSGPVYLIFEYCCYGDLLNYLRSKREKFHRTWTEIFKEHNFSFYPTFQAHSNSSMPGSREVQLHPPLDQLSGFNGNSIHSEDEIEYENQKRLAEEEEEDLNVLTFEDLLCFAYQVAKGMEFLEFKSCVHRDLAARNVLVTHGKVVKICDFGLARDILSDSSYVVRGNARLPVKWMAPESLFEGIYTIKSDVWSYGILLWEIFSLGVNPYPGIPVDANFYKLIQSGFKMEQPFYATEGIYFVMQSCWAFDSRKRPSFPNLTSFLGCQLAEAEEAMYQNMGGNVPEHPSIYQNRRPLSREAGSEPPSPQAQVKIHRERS

T2 sequence (P10721 26-976 limits assumed): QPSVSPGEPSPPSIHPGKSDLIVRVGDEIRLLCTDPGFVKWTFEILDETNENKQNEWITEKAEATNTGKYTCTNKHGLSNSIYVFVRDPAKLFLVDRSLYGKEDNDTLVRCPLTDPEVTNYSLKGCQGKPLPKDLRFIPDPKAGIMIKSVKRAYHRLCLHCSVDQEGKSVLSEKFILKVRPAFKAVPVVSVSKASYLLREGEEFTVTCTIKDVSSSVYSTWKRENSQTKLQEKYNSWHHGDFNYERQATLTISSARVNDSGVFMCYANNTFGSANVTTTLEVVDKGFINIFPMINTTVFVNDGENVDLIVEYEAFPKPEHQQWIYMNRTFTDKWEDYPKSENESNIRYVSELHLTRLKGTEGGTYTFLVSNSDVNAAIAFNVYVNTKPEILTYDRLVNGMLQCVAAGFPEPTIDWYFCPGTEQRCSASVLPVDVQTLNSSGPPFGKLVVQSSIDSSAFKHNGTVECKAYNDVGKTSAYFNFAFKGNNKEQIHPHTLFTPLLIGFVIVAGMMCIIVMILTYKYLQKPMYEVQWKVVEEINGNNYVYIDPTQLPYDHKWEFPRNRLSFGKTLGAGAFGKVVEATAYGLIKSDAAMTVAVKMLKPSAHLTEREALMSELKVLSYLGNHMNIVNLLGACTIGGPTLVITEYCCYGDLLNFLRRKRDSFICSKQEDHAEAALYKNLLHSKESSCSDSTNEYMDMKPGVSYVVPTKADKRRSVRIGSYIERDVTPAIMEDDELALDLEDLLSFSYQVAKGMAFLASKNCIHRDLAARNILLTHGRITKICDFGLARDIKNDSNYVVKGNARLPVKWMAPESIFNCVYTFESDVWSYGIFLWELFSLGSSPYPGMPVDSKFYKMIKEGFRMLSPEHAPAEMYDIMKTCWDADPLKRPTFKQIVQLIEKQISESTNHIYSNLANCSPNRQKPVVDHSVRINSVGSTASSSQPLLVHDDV

B1: Humanized clone 3 of 20D9 (VH3 + VK1) (antibody, human IgG1, kappa)
heavy: not shown
light: DIQMTQSPSVLSASVGDRVTINCRASQNINKELNWYQQKLGEAPKLLIYNTNNLQSGVPSRFSGSGSGTDYTLTISSLQPEDVATYFCFQHKSWPLTFGSGTKLEIKRTVAAPSVFIFPPSDEQLKSGTASVVCLLNNFYPREAKVQWKVDNALQSGNSQESVTEQDSKDSTYSLSSTLTLSKADYEKHKVYACEVTHQGLSSPVTKSFNRGEC
notes: also called candidate #3; #3 mab
Binding to human FLT3 (MFI ratio to IgG1 control) [1]: 95.3
binding result (c-KIT on Ba/F3 cells): no binding
binding result [2]: no binding

Reference: patent US20250049939A1 (TUBULIS, published 2025)
